Measurements published in patent publication US20040077835A1, “Chemokine receptor modulators, production and use” (published 2004).
The star is where a group is joined. Nonanoyl = CCCCCCCCC(=O)*

Legend:
CCR5 [1] = target: T1, CCR5 (Homo sapiens (Human), UniProt P51681); assay: cell-based or functional assay
CCR5 [2] = target: T1, CCR5; assay: cell-based or functional assay; remark: listed apart in the source

B1: NNY-…-L19I-RANTES (20-68) (ligand)
chain: Nonanoyl-PYSSDTTPCCFAYIARPIPRAHIKEYFYTSGKCSNPAVVFVTRKNRQVCANPEKKWVREYINSLEMS
modifications: ends and bridges not checked
Mean Relative Potency (IC50 in the envelope-mediated cell fusion assay, relative to AOP-RANTES = 100) (CCR5 [1]): 13 relative to AOP-RANTES = 100

B2: AOP-RANTES-K(palmitoyl)-G (ligand)
chain: PYSSDTTPCCFAYIARPLPRAHIKEYFYTSGKCSNPAVVFVTRKNRQVCANPEKKWVREYINSLEMSKG
modifications: N-terminal aminooxypentane in place of Ser 1; epsilon amino group of the Lys of the C-terminal extension carries glyoxylyl=AoA-ethylene diamine-palmitate ("palmitoyl"), joined by an oxime bond
Mean Relative Potency (IC50 in the envelope-mediated cell fusion assay, relative to AOP-RANTES = 100) (CCR5 [1]): 45 relative to AOP-RANTES = 100

B3: NNY-PYSSDTTPCCFAYI-A16S-RANTES (17-68) (ligand)
chain: Nonanoyl-PYSSDTTPCCFAYISRPLPRAHIKEYFYTSGKCSNPAVVFVTRKNRQVCANPEKKWVREYINSLEMS
modifications: ends and bridges not checked
Mean Relative Potency (IC50 in the envelope-mediated cell fusion assay, relative to AOP-RANTES = 100) (CCR5 [1]): 15 relative to AOP-RANTES = 100

B4: n-Nonanoyl-RANTES (2-68) (ligand)
chain: Nonanoyl-PYSSDTTPCCFAYIARPLPRAHIKEYFYTSGKCSNPAVVFVTRKNRQVCANPEKKWVREYINSLEMS
modifications: ends and bridges not checked
Average Infectivity IC50 (cell-free viral infection assay) (CCR5 [2]): 24 pM
Cell-Fusion Result For Comparison (IC50) (CCR5 [2]): 97 pM

B5: Aminooxypentane-RANTES (2-68) (ligand)
chain: {CH3‑(CH2)4‑O‑N:CH‑CO}-PYSSDTTPCCFAYIARPLPRAHIKEYFYTSGKCSNPAVVFVTRKNRQVCANPEKKWVREYINSLEMS
modifications: ends and bridges not checked
Mean Relative Potency (IC50 in the envelope-mediated cell fusion assay, relative to AOP-RANTES = 100) (CCR5 [1]): 100 relative to AOP-RANTES = 100 (arbitrary value of the control)
Average Infectivity IC50 (cell-free viral infection assay) (CCR5 [2]): 145 pM
Cell-Fusion Result For Comparison (IC50) (CCR5 [2]): 480 pM
